From publication PMC2148182 (The Journal of Cell Biology, 1998) come the findings set out here.

In assay [1] the target is T1, yeast actin monomers (yeast (S. cerevisiae), UniProt P60010 1-375). Put plainly: co-sedimentation.
In assay [2] the target is T1, yeast actin monomers. The assay can be described thus: co-sedimentation. The source holds these as a separate data set.

Like-named read-outs stand apart in the source and are kept apart here.

B1: full-length twinfilin (yeast, recombinant) (natural protein)
chain: MATQSGIVAEQALLHSLNENLSADGIVIIIAKISPDSTSVHQTQVARSFEELVQLASQEREPLYIFYKPEGLDKYFFVSFIPDGSPVRSRMLYASTKNTLARQVGSNSLSTEQPLITDAQDLVDLKNFDSARPAGQNKPLTHDEEMQIEINKQQALLRKNTSVKLVSQDSASPLSLTFRVNSEKPINEILDSEGKNLIIFQIDPSNETIQIVQSDTCPSVDELYIDLPGPSYTIFRQGDSSFFIYSCPSGSKVKDRMIYASNKNGFINYLKNDQKIAFSKVVEIGDFVELDKSLLMATNKEDSLDHGSNPDLPNKSNLKFNKPKGPLRKRRT
On to B1, for which the “stoichiometry N” value in assay [1] is 1 twinfilin:actin; in assay [2] it was ~1 twinfilin:actin.
